14 substances from paper PMC13385800 (2026) can be followed below.

What all share (experiment): co-immunoprecipitation, mass spectrometry
The target of assay [1] is HDAC3 (endogenous, HEK293T). Particulars: HEK293T cells; n = 3 independent transfections per mutant; read off a plot.
Assay [2] has as its target GPS2 (endogenous, HEK293T). Particulars: HEK293T cells; n = 3 independent transfections per mutant; read off a plot.
In assay [3] the target is TBL1X (endogenous, HEK293T). Particulars: HEK293T cells; n = 3 independent transfections per mutant; read off a plot.
Assay [4] deals with NCOR1 (endogenous, HEK293T) [Homo sapiens (Human).]. Particulars: HEK293T cells; n = 3 independent transfections per mutant; read off a plot.
Assay [5] concerns the target endogenous SETD5 of Flp-In T-REx 293 and HEK293T cells [human (endogenous in Flp-In T-REx 293 and HEK293T)]. The conditions noted are these: n = 3 independent transfections per mutant, read off a plot.

Take “EGFP-ANKRD11 full length (FL), wild type (from UniProt Q6UB99) E2522K”: the other: log2 fold change (WT/mutant) in assay [1] was found to be 2.9 log2; in assay [2] it was 2.8 log2; in assay [3], 2.3 log2.
Consider “EGFP-ANKRD11 full length (FL), wild type (from UniProt Q6UB99) L2605R”, for which the other: log2 fold change (WT/mutant) in assay [1] came to 7 log2; in assay [2], 3.4 log2; in assay [3] it was 7.2 log2.
Regarding “EGFP-ANKRD11 full length (FL), wild type (from UniProt Q6UB99) R2523W”, the results for the other: log2 fold change (WT/mutant) in assay [1] and in assay [2] were 5.9 log2 and 2.8 log2, respectively.
Regarding “EGFP-ANKRD11 full length (FL), wild type (from UniProt Q6UB99) S2475P”, the other: log2 fold change (WT/mutant) in assay [1] came out at 7 log2; in assay [2], 3.4 log2; in assay [3], 7.6 log2.
“EGFP-ANKRD11 full length (FL), wild type mutant E2522K [not stated] / NCOR1 (endogenous, HEK293T) [Homo sapiens (Human).] chain 1 E2522K” showed a screen value in assay [4] of 2.9 log2.
Substance “EGFP-ANKRD11 full length (FL), wild type mutant E2522K [not stated] / endogenous SETD5 of Flp-In T-REx 293 and HEK293T cells [human (endogenous in Flp-In T-REx 293 and HEK293T)] chain 1 E2522K” had a screen value in assay [5] of 2.7 log2.
Take “EGFP-ANKRD11 full length (FL), wild type mutant L2605R [not stated] / NCOR1 (endogenous, HEK293T) [Homo sapiens (Human).] chain 1 L2605R”: the screen value in assay [4] turned out to be 7.9 log2.
On to “EGFP-ANKRD11 full length (FL), wild type mutant L2605R [not stated] / endogenous SETD5 of Flp-In T-REx 293 and HEK293T cells [human (endogenous in Flp-In T-REx 293 and HEK293T)] chain 1 L2605R”, for which the screen value in assay [5] was 4.6 log2.
Take “EGFP-ANKRD11 full length (FL), wild type mutant R2512Q [not stated] / NCOR1 (endogenous, HEK293T) [Homo sapiens (Human).] chain 1 R2512Q”: the screen value in assay [4] was 4.2 log2.
Consider “EGFP-ANKRD11 full length (FL), wild type mutant R2512Q [not stated] / endogenous SETD5 of Flp-In T-REx 293 and HEK293T cells [human (endogenous in Flp-In T-REx 293 and HEK293T)] chain 1 R2512Q”, for which the screen value in assay [5] is 4 log2.
Substance “EGFP-ANKRD11 full length (FL), wild type mutant R2523W [not stated] / NCOR1 (endogenous, HEK293T) [Homo sapiens (Human).] chain 1 R2523W” came in with a screen value in assay [4] of 7.4 log2.
Regarding “EGFP-ANKRD11 full length (FL), wild type mutant R2523W [not stated] / endogenous SETD5 of Flp-In T-REx 293 and HEK293T cells [human (endogenous in Flp-In T-REx 293 and HEK293T)] chain 1 R2523W”, in assay [5], the screen value was determined as 5.6 log2.
The substance “EGFP-ANKRD11 full length (FL), wild type mutant S2475P [not stated] / NCOR1 (endogenous, HEK293T) [Homo sapiens (Human).] chain 1 S2475P” came in with a screen value in assay [4] of 7.9 log2.
On to “EGFP-ANKRD11 full length (FL), wild type mutant S2475P [not stated] / endogenous SETD5 of Flp-In T-REx 293 and HEK293T cells [human (endogenous in Flp-In T-REx 293 and HEK293T)] chain 1 S2475P”, for which the screen value in assay [5] stood at 4.6 log2.
